Test results reported in patent US20140037648A1 (HUMABS BIOMED, published 2014).

Columns and labels:
[1] = target: F protein of RSV 18537 (B, Washington District of Columbia US, 1962; B/18537/62) (RSV (strain 18537), UniProt P13843 26-574); assay: cell-based or functional assay
[2] = target: F protein of RSV 9320 (B, Massachusetts US, 1977; B/9320/77) (RSV (strain 9320)); assay: cell-based or functional assay
[3] = target: F protein of RSV WV/14617/85 (B, Huntington West Virginia, 1985; B/14617/85) (RSV (strain WV/14617/85)); assay: cell-based or functional assay
[4] = target: T1, F protein of RSV strain A2 (A, 1961 Australia; A/A2/61) (RSV (strain A2), UniProt P03420 26-574); assay: cell-based or functional assay
[5] = target: T1, F protein of RSV strain A2 (A, 1961 …); assay: cell-based or functional assay; remark: listed apart in the source
[6] = target: F protein of BRSV strain RB94 (BRSV (strain RB94)); assay: cell-based or functional assay
[7] = target: F protein of PVM strain 15 (PVM (strain 15)); assay: cell-based or functional assay
[8] = target: T2, stabilized form of the full-length pre-fusion RSV F protein (RSV); assay: surface plasmon resonance
T2 construct: also called pre-fusion F protein; RSV F pre-fusion recombinant protein

Binder	Neutralization IC50 [1] [µg/mL]	Neutralization IC50 [2] [µg/mL]	Neutralization IC50 [3] [µg/mL]	Neutralization IC50 [4] [µg/mL]	IC50 (ng/ml), microneutralization [5] [ng/mL]	IC50, neutralization of BRSV strain RB94 [6] [µg/mL]	IC50, neutralization of PVM strain 15 [7] [µg/mL]	Kd [8] [pM]
Palivizumab (antibody, V domains shown) VH: QVTLRESGPALVKPTQTLTLTCTFSGFSLSTSGMSVGWIRQPPGKALEWLADIWWDDKKDYNPSLKSRLTISKDTSKNQVVLKVTNMDPADTATYYCARSMITNWYFDVWGAGTTVTVSS VL: DIQMTQSPSTLSASVGDRVTITCKCQLSVGYMHWYQQKPGKAPKLLIYDTSKLASGVPSRFSGSGSGTEFTLTISSLQPDDFATYYCFQGSGYPFTFGGGTKLEIK	0.143	0.069	0.129	0.617	524	–	–	–
HMB3210v3 (antibody, V domains shown, also called HMB3210 variant 3) VH: EVQLVESGGGLVKPGGSLRLSCAASGFTFSSYSMNWVRQAPGKGLEWVSSISASSSYSDYADSAKGRFTISRDNAKTSLFLQMNSLRAEDTAIYFCARARATGYSSITPYFDIWGQGTLVTVSS VL: QSVVTQPPSVSGAPGQRVTISCTGSSSNIGAGYDVHWYQQLPGTAPKLLIYDNNNRPSGVPDRFSASKSGTSASLAITGLQAEDEADYYCQSYDRSLSGVFGTGTKVTVL	–	–	–	–	–	0.01	0.1	100
